Biological target: MSI1 RRM12 (human) (UniProt O43347)
Test: ITC
Conditions: ITC: 20 mM HEPES pH 7.5, 150 mM NaCl, 3 mM MgCl2, 25 C
[1] = 30 uM RNA in cell, 600 uM protein titrant

MSI1 RRM12 (human), sequence (O43347 20-191): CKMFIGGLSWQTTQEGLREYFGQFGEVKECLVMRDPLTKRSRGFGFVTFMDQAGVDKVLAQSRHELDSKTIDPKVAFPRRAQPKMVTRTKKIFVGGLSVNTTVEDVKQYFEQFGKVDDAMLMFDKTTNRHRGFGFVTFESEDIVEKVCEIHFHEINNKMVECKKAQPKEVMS

Substance	Kd [1] [µM]	Kd [µM]	further results
ZIKV xrRNA1	–	–	Kd ([…]): 94.6 µM
MVEV 3'UTR	265	–	–
ZIKV 3'UTR WT	–	2.5	–
USUV 3'UTR	301	–	–
JEV 3'UTR	218	–	–
ZIKV 3'SL	–	65.5	–
DENV4 3'UTR	336	–	–
ZIKV xrRNA2 deltaP4	–	5.7	–
